# Experimental data reported in the supplement of paper PMC6755084.
# System: F1*sub RNA substrate (template-directed ligation)
# Experiment: fraction ligated after 30 min (ligated reads / total reads); higher = more ligase activity; sequences stand for … in GAGACCGCAACTGAAAAGTTGT…AGTTCTGCACGTAGAAGCAAAAGGC
# Settings: 42 °C
# How it was run: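 Oligo-pool templates underwent PCR amplification, T7 transcription and gel purification to yield ribozyme variants. Gel-separated ligated and unligated bands were converted to complementary DNA with barcoded primers and sequenced on a MiSeq, keeping core bases of quality ≥20. The ratio of ligated reads to total reads gave the fraction ligated for every variant.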
row,Sequence,fraction ligated
1,TATCACTTGTCTAAGCATTTGGATGGGTTGA [3d1848],0.818
2,TATCACTTCGTAAGACATTTGGATGGGTTGA [3d1319],0.84
3,TATCACTTGTCGTAAGACACTTTGGAGGGTTG [2d295],0.0513
4,ATCACTGTCGTAAGACCTTTGGATGGGTTGA [3d115],0.726
5,TATCACTTGTCGTAAGCACTTGGTGGGTTGA [3d2130],0.0887
6,TATCACTTGTCGTAAGCACTTTGGATGGTTGA [2d251],0.216
7,TATCACTTGCGAAGCACTTTGGATGGGTTGA [3d1615],0.817
8,TATATTGTCGTAAGAACTTTGGATGGGTTGA [3d767],0.468
9,TATCACTTGTCGAAGACACTTTGGTGGGTTG [3d1973],0.0779
10,TATCATTGTCGTAAGACACTTTGATGGGTTG [3d1281],0.765
11,TATCACTTGTCGTAGACACTGGATGGGTTGA [3d2035],0.778
12,TATCACGTCGTAAGACACTTTGGAGGGTTGA [3d1307],0.104
13,TATCACTTGTCTAAGACACTTTGGATGGGTTA [2d206],0.803
14,TATCACTTGCGTAAGAACTTTGGTGGGTTGA [3d1662],0.0953
15,TATCACTGTCGTAAGCACTTTGGTGGGTTGA [3d1413],0.11
16,TATCATTGGTAAGACACTTTGGATGGGTTGA [3d1156],0.809
17,TTACTTGTCGAAGACACTTTGGATGGGTTGA [3d284],0.131
18,TATCACTTGTCGTAGACCTTTGGATGGGTTG [3d2027],0.777
19,TATCACTTGCGTAAACATTTGGATGGGTTGA [3d1641],0.822
20,TATCCTTTCGTAAGACACTTTGGATGGGTTGA [2d91],0.786
21,TATACTTTCGTAAGACACTTTGGATGGGTTGA [2d72],0.542

row,Sequence,fraction ligated
1,TTACTTGTGTAAGACACTTTGGATGGGTTGA [3d282],0.207
2,TATCACTGTCGTAAGACCTTGGATGGGTTGA [3d1426],0.809
3,TATCACTTGCGTAAGACACTTGGATGGTTGA [3d1685],0.152
4,TATCACTTGTCGAGACATTTGGATGGGTTGA [3d1907],0.829
5,TATCATTGTCGAAGACACTTTGATGGGTTGA [3d1208],0.772
6,TATCACTTGCGTAAGACACTTGGTGGGTTGA [3d1683],0.139
7,ATCATTGTCGTAAGCACTTTGGATGGGTTGA [3d94],0.727
8,ACACTTGTCGTAAGACACTTGGATGGGTTGA [3d39],0.157
9,TACACTTGTCGTAAGACACTTTGGATGGGTTG [2d68],0.758
10,TACACTTGTCGTAGACACTTTGGATGGTTGA [3d669],0.524
11,TATCCTTGTCGTAAGAACTTTGGTGGGTTGA [3d1078],0.0718
12,TACACTTGCGTAAGACACTTTGATGGGTTGA [3d611],0.0347
13,TATCACTTGCGAAGACACTTTGGATGGGTTGA [2d165],0.835
14,ATCACTGTCGTAAGACACTTTGATGGGTTGA [3d118],0.685
15,TTCACTTGTCTAAGACACTTGGATGGGTTGA [3d409],0.435
16,TATCATTGTGTAAGACACTTTGGATGGGTTGA [2d112],0.824
17,TTCACTTGTCTAAGACACTTTGGAGGGTTGA [3d412],0.154
18,TACACTTGTCGTAAACACTTTGGATGGGTTGA [2d57],0.0886
19,TACATTGTCGTAAGACATTTGGATGGGTTGA [3d558],0.298
20,TATCACTTCGTAAGACACTTTGGATGGGTTG [3d1326],0.795
21,TACACTTGTCGAAGACATTTGGATGGGTTGA [3d651],0.444

row,Sequence,fraction ligated
1,TATACTTGTCGTAAGACATTTGGATGGGTTGA [2d82],0.751
2,TACACTTGTCGAAGCACTTTGGATGGGTTGA [3d648],0.134
3,TATCACTTGTCGAAACACTTGGATGGGTTGA [3d1918],0.776
4,TATCACTTGCGTAGACACTTTGGATGGGTTA [3d1637],0.781
5,TATCACTTGTCGTAAGACACTTTGGAGGGTTA [2d294],0.0266
6,TATCATTGTCTAAGACACTTTGGATGGTTGA [3d1198],0.169
7,TATACTTGCGTAAGACACTTTGGATGGGTTG [3d827],0.272
8,TATCACTTGTCGTAAACATTTGGATGGGTTGA [2d236],0.83
9,TATACTTGTCGTAAGACACTTTGGATGGGTT [3d947],0.00683
10,TTCACTTGCGTAAGACACTTTGATGGGTTGA [3d381],0.055
11,TATCACTTTCGTAAACACTTTGGATGGTTGA [3d1526],0.0497
12,TACACTTGTCGTAGACACTTTGGATGGGTTGA [2d56],0.617
13,TATCCTTGTCGTAAACACTTTGGATGGGTTA [3d1063],0.416
14,TATCACTTTCGAAGACACTTTGGATGGTTGA [3d1503],0.0707
15,TATCACTTGTCGTAAGAACTTTGGTGGTTGA [3d2173],0.0396
16,TATCACTTGTCGTAGCACTTTGATGGGTTGA [3d2007],0.761
17,TATCCTTGTCGTAAGCACTTTGGATGGTTGA [3d1072],0.0464
18,TATCACTTGTCGTAAGCCTTTGGATGGGTTA [3d2119],0.79
19,TACACTTGTCGAGACACTTTGGATGGGTTGA [3d646],0.195
20,TATCACTTGTCGTAAGACCTTTGGTGGTTGA [3d2197],0.0467
21,TACATTGTCGTAAGACACTTTGGAGGGTTGA [3d562],0.16

row,Sequence,fraction ligated
1,TATCATTGTCGAAGACACTTTGGATGGGTTG [3d1213],0.796
2,TACACTTGTCTAAGACACTTTGATGGGTTGA [3d640],0.0986
3,TATCACTTTGTAAGACACTTTGGATGGTTGA [3d1476],0.119
4,TATCACTTGTGTAAGACACTTTGGATGGTTA [3d1806],0.101
5,TATCACTTGTCTAAACACTTTGGATGGGTTA [3d1844],0.758
6,TATCACTTGTCGTAAGAACTTGGAGGGTTGA [3d2162],0.0364
7,TATACTGTCGTAAGAACTTTGGATGGGTTGA [3d786],0.809
8,ATCACTTGTGTAAGACACTTGGATGGGTTGA [3d164],0.719
9,TATACTTGTCGTAAGACCTTTGGATGGGTTA [3d916],0.059
10,TATCACTTCGTAAGACACTTTGATGGGTTGA [3d1321],0.795
11,TATCATTGTCTAAGACACTTTGGATGGGTTA [3d1199],0.477
12,TATCACTTGTCGTAAGACACTTGGATGGTTA [3d2251],0.0219
13,ATACTTGCGTAAGACACTTTGGATGGGTTGA [3d50],0.177
14,TATCCTTGTCTAAGACACTTTGGAGGGTTGA [3d1025],0.0172
15,TATCACTTGTCGAAGACACTTTGGATGGTTG [3d1978],0.432
16,TTCACTTGTCTAAGAACTTTGGATGGGTTGA [3d406],0.349
17,TATCACTTGTCTAGCACTTTGGATGGGTTGA [3d1825],0.754
18,TATACTTGCGTAAGACACTTGGATGGGTTGA [3d821],0.485
19,TACCTTGTCGTAAGACACTTTGGTGGGTTGA [3d542],0.744
20,TTCACTTGCGTAAGCACTTTGGATGGGTTGA [3d376],0.804
